These results are taken from US20250296959A1, “B7-H3 TARGETING PEPTIDES AND CONSTRUCTS THEREOF” (Mariana Oncology Inc., priority 2024, published 2025).

Starred links: 1 amine or outer side, 2 acyl side, 3 side chain; linkers in the order of their positions; H or OH if unused. Positions of bridges follow the written chain, without caps; N, C: chain ends. Non-standard residues stand in square brackets, D forms with d. Groups on a side chain read outwards from the residue. Primed or numbered codes have the meaning given here. *: point of attachment. R‑DOTAGA = O=C(O)CN1CCN(CC(=O)O)CCN([C@H](CCC(=O)*)C(=O)O)CCN(CC(=O)O)CC1; Ala(piperidin-4-yl) = O=C([C@H](CC1CCN([*:3])CC1)N[*:1])[*:2]; (2S,3S)βMePhe = C[C@@H](c1ccccc1)[C@H](N[*:1])C(=O)[*:2]; DOTA = O=C(O)CN1CCN(CC(=O)O)CCN(CC(=O)*)CCN(CC(=O)O)CC1; Phe(4-NHCONH2) = NC(=O)Nc1ccc(C[C@H](N)C(=O)O)cc1; PipAla = piperidinyl-alanine residue (as named); Trp(5-F) = N[C@@H](Cc1c[nH]c2ccc(F)cc12)C(=O)O; hydroxyVal = hydroxy-valine residue (as named); PEG4′ = 4x 3-(2-aminoethoxy)propanoic acid; hCba = O=C([C@H](CCC1CCC1)N[*:1])[*:2]; γGlu = O=C(O)[C@H](CCC(=O)[*:2])N[*:1]; 1Nal = N[C@@H](Cc1cccc2ccccc12)C(=O)O; Ala(4-THP) = N[C@@H](CC1CCOCC1)C(=O)O; Pip(CH2CO2H)Ala = not defined here; Val(3-OH) = CC(C)(O)[C@H](N)C(=O)O; hCha = N[C@@H](CCC1CCCCC1)C(=O)O; Cha = N[C@@H](CC1CCCCC1)C(=O)O; Tle = CC(C)(C)[C@H](N)C(=O)O; hLeu = CC(C)CC[C@H](N)C(=O)O; Dab = NCC[C@H](N)C(=O)O; Ms = CS(=O)(=O)*; Sar = CNCC(=O)O

Experiment [1] deals with B7-H3 on Calu-6 cells (human) (UniProt Q5ZPR3). In words: 177Lu-labelled peptide on Calu-6 cells, % cell associated fraction; B = 25<%<=50.
Experiment [2] has the same target. In words: 177Lu-labelled peptide on Calu-6 cells, % cell associated fraction; C = >50%.

On to Ac-[hCha]YC[Tle]GK[Ala(4-THP)]DVYC[Trp(5-F)]F[Val(3-OH)][dK](DOTA)-OH (disulfide 3-11 (inferred)) [Cpd 368], for which the % cell associated fraction in experiment [1] lay in the range of 25 to 50%.

For the molecule Ac-[hLeu]YC[Tle]G[Pip(PEG4-DOTA)Ala][Ala(4-THP)]DVYC[Trp(5-F)]F[Val(3-OH)][dA]-NH2 (disulfide 3-11 (inferred)) [Cpd 384], the % cell associated fraction in experiment [1] fell in the range of 25 to 50%.

In turn, Ac-[hLeu]YC[Tle]G[Pip(PEG4-DOTA)Ala][Ala(4-THP)]DVYC[Trp(5-F)]F[Val(3-OH)][dS]-NH2 (disulfide 3-11 (inferred)) [Cpd 407] had a % cell associated fraction in experiment [2] greater than 50%.

With Ac-[hLeu]YC[Tle]G[PipAla](CH2COOH)[Ala(4-THP)]DV[Phe(4-NHCONH2)]C[Trp(5-F)][(2S,3S)βMePhe][Val(3-OH)][dK](DOTA)-OH (disulfide 3-11 (inferred)) [Cpd 499], in experiment [2], the % cell associated fraction was greater than 50%.

On to Ac-[hLeu]YC[Tle]G[Dab][Ala(4-THP)]DVYC[Trp(5-F)]F[Val(3-OH)][dK](DOTA)-OH (disulfide 3-11 (inferred)) [Cpd 371], for which, in experiment [1], the % cell associated fraction lay within 25 to 50%.

The molecule Ac-[hLeu]YC[Tle]G[PipAla][Ala(4-THP)]DVYC[Trp(5-F)]F[hydroxyVal][dK]([hGlu-DOTA])-OH (disulfide 3-11 (inferred)) [Cpd 464] showed a % cell associated fraction in experiment [2] greater than 50%.

Consider Ac-[hLeu]YC[Tle]G[PipAla][Ala(4-THP)]DVYC[1Nal]F[hydroxyVal][dK](DOTA)-OH (disulfide 3-11 (inferred)) [Cpd 436], for which the % cell associated fraction in experiment [1] fell in the range of 25 to 50%.

B1: Cpd 427 (peptide)
peptide: Ac-[hLeu]YC[Tle]G[PipAla][Ala(4-THP)]DV[Phe(4-NHCONH2)]CXF[hydroxyVal][dK](DOTA)-OH
modifications: disulfide 3-11 (inferred); not fully specified (residue 12); printed as Ac-hLeu-Y-C-Tbg-G-PipAla-ThpA-D-V-Aph(Cbm)-C-5FW-F-hydroxyVal-dLys(DOTA)-COOH, disulfide
In experiment [2], B1 had a % cell associated fraction greater than 50%.

Ac-[hLeu]YC[Tle]GK(DOTA)[Ala(4-THP)]DVYC[Trp(5-F)]F[Val(3-OH)]-NH2 (disulfide 3-11 (inferred)) [Cpd 338] gave a % cell associated fraction in experiment [1] of 25 to 50%.

B2: Cpd 440 (peptide)
peptide: Ac-[hLeu]YC[Tle]G[PipAla][Ala(4-THP)]DVYCXF[hydroxyVal][dK]([γGlu-DOTA])-OH
modifications: disulfide 3-11 (inferred); not fully specified (residue 12); printed as Ac-hLeu-Y-C-Tbg-G-PipAla-ThpA-D-V-Y-C-5FW-F-hydroxyVal-dLys(gGlu-DOTA)-COOH, disulfide
As for B2, the % cell associated fraction in experiment [1] lay within 25 to 50%.

For the molecule Ac-[hLeu]YC[Tle]G[PipAla](CH2CO2H)[Ala(4-THP)]DVYC[Trp(5-F)]F[Val(3-OH)][dK](DOTA)-OH (disulfide 3-11 (inferred)) [Cpd 339], the % cell associated fraction in experiment [2] is greater than 50%.

In the case of Ac-[hLeu]YC[Tle]G[PipAla][Ala(4-THP)]DVYC[Trp(5-F)]F[hydroxyVal][dK]([PEG4′-DOTA])-OH (disulfide 3-11 (inferred)) [Cpd 465], in experiment [1], the % cell associated fraction was 25 to 50%.

B3: Cpd 433 (peptide)
peptide: Ac-[hLeu]YC[Tle]G[PipAla][Ala(4-THP)]DVYCX[(2S,3S)βMePhe][hydroxyVal][dK](DOTA)-OH
modifications: disulfide 3-11 (inferred); not fully specified (residue 12); printed as Ac-hLeu-Y-C-Tbg-G-PipAla-ThpA-D-V-Y-C-5FW-[(2S, 3S)beta-Me-Phe]-hydroxyVal-dLys(DOTA)-COOH, disulfide
In experiment [2], B3 registered a % cell associated fraction greater than 50%.

Consider Ac-[hLeu]YC[Tle]GK[Pip(PEG4-DOTA)Ala]DVYC[Trp(5-F)]F[Val(3-OH)]-NH2 (disulfide 3-11 (inferred)) [Cpd 383], for which the % cell associated fraction in experiment [1] lay in the range of 25 to 50%.

Consider Ac-[hLeu]YCVG[Ala(piperidin-4-yl)][Cha]DVYC[Trp(5-F)]F[Val(3-OH)][dK](DOTA)-NH2 (disulfide 3-11 (inferred)) [Cpd 227], for which the % cell associated fraction in experiment [2] was greater than 50%.

B4: Cpd 318 (peptide)
peptide: Ac-[hLeu]YCIG[Pip(CH2CO2H)Ala][Ala(4-THP)]DVYC[Trp(5-F)]F[Val(3-OH)][dK](DOTA)-OH
modifications: disulfide 3-11 (inferred); reading uncertain; also: printed as Ac-hLeu-Y-C-Ile-G-[Pip(CH2CO2H)Ala]-ThpA-D-V-Y-C-5FW-F-hydroxyVal-dLys(DOTA)-COOH; disulfide
The molecule B4 showed a % cell associated fraction in experiment [1] of 25 to 50%.

Molecule Ac-[hLeu]YC[Tle]GK[Ala(4-THP)]DVYC[Trp(5-F)]F[Val(3-OH)][dK](DOTA)-NH2 (disulfide 3-11 (inferred)) [Cpd 366] returned a % cell associated fraction in experiment [1] of 25 to 50%.

As for Ac-[hLeu]YC[Tle][Sar]K[Ala(4-THP)]DVYC[Trp(5-F)]F[Val(3-OH)][dK](DOTA)-OH (disulfide 3-11 (inferred)) [Cpd 348], the % cell associated fraction in experiment [1] lay within 25 to 50%.

B5: Cpd 437 (peptide)
peptide: Ms-[hLeu]YC[Tle]G[PipAla][Ala(4-THP)]DVYCXF[hydroxyVal][dK](DOTA)-OH
modifications: disulfide 3-11 (inferred); not fully specified (residue 12); printed as MeSO2-hLeu-Y-C-Tbg-G-PipAla-ThpA-D-V-Y-C-5FW-F-hydroxyVal-dLys(DOTA)-COOH, disulfide
In experiment [1], B5 displayed a % cell associated fraction of 25 to 50%.

As to Ac-[hLeu]YC[Tle]G[PipAla][Ala(4-THP)]DVYC[Trp(5-F)][(2S,3S)βMePhe][Val(3-OH)][dK]([dE-DOTA])-OH (disulfide 3-11 (inferred)) [Cpd 501], the % cell associated fraction in experiment [2] was greater than 50%.

Molecule Ac-[hLeu]YC[Tle]GK[Pip(PEG4-DOTA)Ala]DVYC[Trp(5-F)]F[Val(3-OH)][dE]-NH2 (disulfide 3-11 (inferred)) [Cpd 410] returned a % cell associated fraction in experiment [1] of 25 to 50%.

Ac-[hLeu]YC[Tle]G[PipAla](CH2COOH)[Ala(4-THP)]DVYC[Trp(5-F)][(2S,3S)βMePhe][Val(3-OH)][dK](DOTA)-OH (disulfide 3-11 (inferred)) [Cpd 497] displayed a % cell associated fraction in experiment [2] greater than 50%.

B6: Cpd 428 (peptide)
peptide: Ac-[hLeu]YC[Tle]G[PipAla][Ala(4-THP)]DVYCXF[hydroxyVal][dK]([Glu-DOTA])-OH
modifications: disulfide 3-11 (inferred); not fully specified (residue 12); printed as Ac-hLeu-Y-C-Tbg-G-PipAla-ThpA-D-V-Y-C-5FW-F-hydroxyVal-dLys(Glu-DOTA)-COOH, disulfide
Consider B6, for which, in experiment [1], the % cell associated fraction is 25 to 50%.

B7: Cpd 429 (peptide)
peptide: Ac-[hLeu]YC[Tle]G[PipAla][Ala(4-THP)]DVYCXF[hydroxyVal][dK]([dE-DOTA])-OH
modifications: disulfide 3-11 (inferred); not fully specified (residue 12); printed as Ac-hLeu-Y-C-Tbg-G-PipAla-ThpA-D-V-Y-C-5FW-F-hydroxyVal-dLys(dGlu-DOTA)-COOH, disulfide
Turning to B7, the % cell associated fraction in experiment [1] lay within 25 to 50%.

In experiment [2], Ac-[hLeu]YC[Tle]GK[Pip(PEG4-DOTA)Ala]DVYC[Trp(5-F)]F[Val(3-OH)][dA]-NH2 (disulfide 3-11 (inferred)) [Cpd 385] returned a % cell associated fraction greater than 50%.

Ac-[hLeu]YC[Tle]G[PipAla](CH2COOH)[PipAla]([PEG4′-DOTA])DVYC[Trp(5-F)][(2S,3S)βMePhe][Val(3-OH)][dE]-NH2 (disulfide 3-11 (inferred)) [Cpd 496] yielded a % cell associated fraction in experiment [1] of 25 to 50%.

B8: Cpd 438 (peptide)
peptide: Ac-[hLeu]YC[Tle]G[PipAla][Ala(4-THP)]DVYCXF[hydroxyVal][dK](R‑DOTAGA)-OH
modifications: disulfide 3-11 (inferred); not fully specified (residue 12); printed as Ac-hLeu-Y-C-Tbg-G-PipAla-ThpA-D-V-Y-C-5FW-F-hydroxyVal-dLys(R-DOTAGA)-COOH, disulfide
For B8, the % cell associated fraction in experiment [1] was in the range of 25 to 50%.

In turn, Ac-[hCba]YC[Tle]GK[Ala(4-THP)]DVYC[Trp(5-F)]F[Val(3-OH)][dK](DOTA)-OH (disulfide 3-11 (inferred)) [Cpd 398] displayed a % cell associated fraction in experiment [1] of 25 to 50%.

Ac-[hLeu]YC[Tle]G[Ala(piperidin-4-yl)][Ala(4-THP)]DVYC[Trp(5-F)]F[Val(3-OH)][dK](DOTA)-OH (disulfide 3-11 (inferred)) [Cpd 340] showed a % cell associated fraction in experiment [2] greater than 50%.
